Results published in patent US8173771B2, “Humanin receptor or humanin-like polypeptide receptor” (Keio Univeristy, priority 2005, dated 2012).
One block for each binder: values may come before it. Ends that are not written are not given here.

Experiments:
[1] = target: T1, myc-tagged mouse CREME9 (mouse, UniProt Q9Z2L7 1-442); experiment: immunofluorescence-based HN binding assay (1) on F11 cells overexpressing CREME9 and human gp130
T1 construct: whole, on cells; Methods say mouse CREME9; Co-expressed with human gp130 in F11 cells; also called CRL4; pEF-mycHis CREME9; not shown: myc-His tag
T1 sequence (looked up): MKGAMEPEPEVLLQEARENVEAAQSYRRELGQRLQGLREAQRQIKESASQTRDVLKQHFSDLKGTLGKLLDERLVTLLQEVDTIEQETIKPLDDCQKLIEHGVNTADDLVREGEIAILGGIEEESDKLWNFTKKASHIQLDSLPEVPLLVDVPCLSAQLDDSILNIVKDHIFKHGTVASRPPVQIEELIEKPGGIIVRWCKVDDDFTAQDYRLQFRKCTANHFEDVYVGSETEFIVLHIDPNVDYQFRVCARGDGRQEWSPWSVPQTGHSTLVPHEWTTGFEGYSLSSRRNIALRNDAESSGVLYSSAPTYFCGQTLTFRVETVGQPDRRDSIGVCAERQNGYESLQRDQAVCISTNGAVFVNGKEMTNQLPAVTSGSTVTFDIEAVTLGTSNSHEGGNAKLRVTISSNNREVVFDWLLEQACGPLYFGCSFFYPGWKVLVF
Experimental: B) F11 cells were transfected with 0.5 µg of pEF-myc His human CREME9 or pEF-mycHis human WSX-1 in association with 0.5 µg of pCAG-human gp130. […] Fluorescence signals were detected with a laser-scanning, confocal microscope LSM (Carl Zeiss, Germany) (right panels).
(§1) F11 cells (7×10^4/well in 6-well plates) were replated into 96-well plates (7×10^3 cells/well) at 24 hrs after transfection with indicated amounts of the plasmids encoding mycHis-WSX or V5-CNTF-R, and with PCAG-human gp130 if required. […] After 6 hrs incubation, they were fixed with 4% paraformaldehyde in PBS for 30 min. After washing with PBS, cells were stained with FITC-conjugated avidin (Molecularprobe, Eugene, Oreg., USA). Immunofluorescence intensity was measured (excitation=485 nm, emission=535 nm) with a spectrofluorometer (Wallac1420 ARVOsx Multi Label Counter). Immunohistochemical analysis was done with a laser-scanning, confocal microscope LSM (Carl Zeiss, Germany).

[2] = target: T2, rat IL-6R (rat, UniProt P22273 20-462); experiment: pull-down with HN-Sepharose 4B from lysates of transfected F11 cells, immunoblot
T2 construct: Overexpressed in F11 cells; stood in the cell lysate in the pull-down assay; also called IL-6 receptor; rat IL-6R (V6 tagged); not shown: printed as 'V6 tagged'
T2 sequence (looked up): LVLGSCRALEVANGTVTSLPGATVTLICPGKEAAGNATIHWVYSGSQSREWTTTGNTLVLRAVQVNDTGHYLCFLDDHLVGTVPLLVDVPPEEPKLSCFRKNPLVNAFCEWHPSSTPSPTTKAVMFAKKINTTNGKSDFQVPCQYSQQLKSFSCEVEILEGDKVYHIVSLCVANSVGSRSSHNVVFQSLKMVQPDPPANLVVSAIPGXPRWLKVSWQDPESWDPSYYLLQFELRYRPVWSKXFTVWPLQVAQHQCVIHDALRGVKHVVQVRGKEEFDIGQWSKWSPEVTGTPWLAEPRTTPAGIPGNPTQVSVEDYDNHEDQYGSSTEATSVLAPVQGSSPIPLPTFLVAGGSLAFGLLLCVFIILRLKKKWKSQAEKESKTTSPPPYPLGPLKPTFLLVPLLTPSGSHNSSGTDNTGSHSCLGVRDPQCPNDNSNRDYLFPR
Experimental: (§2) WSX-1, CNTF-R, and IL-6 were over-expressed in F11 cells and the pull down assay was made using the above 4B bead.
(§3) F11 cells (7×10^4/well in 6-well plates) were transfected with the plasmids encoding mycHis-WSX-1, V5-CNTF-R or rat IL-6R (V6 tagged). […] The beads were then reacted with a blocking buffer (0.2M glycine, pH 8.0) for 2 hrs at a room temperature, washed with the coupling buffer and stored at 4° C. for use in pull-down assay. For each pull-down assay, 20 μl of 1:1 slurry of Sepharose was used for 100 μl of the cell lysate.

[3] = target: T3, Humanin receptor (HNR) overexpressed in F11 cells: human CNTF-R/WSX-1/gp130 (human, UniProt P26992 23-342; Q6UWB1 33-636; P40189 23-918); experiment: cold competitor in binding assay (2), F11 cells transfected with human CNTF-R/WSX-1/gp130
T3 construct: whole, on cells; The three human subunits co-transfected into F11 cells, which also carry the endogenous receptor; also called both the CNTF receptor and WSX-1; not shown: C-terminal V5 tag; C-terminal myc-His tag
Experimental: A) F11 cells were seeded on 96-well plates coated with poly-L-lysine (7 ×10^3 cells/well). […] On the other hand, F11 cells were transfected with 0.5 μg of pcDNA3.1/GS-human CNTF-R, pEF1/MycHis-human WSX-1, and 1.0 μg of pCAG-human gp130. At 24 hrs after the transfection, the cells were re-seeded on 96-well plates coated with poly-L-lysine (7 ×10^3 cells/well).
as §1

[4] = target: T2, rat IL-6R; experiment: pull-down with HNA-Sepharose 4B from lysates of transfected F11 cells, immunoblot
Experimental: as §2, §3

[5] = target: T4, C-terminally myc-tagged human WSX-1 (mycHis-WSX-1) (human, UniProt Q6UWB1 33-636); experiment: as above
T4 construct: whole, on cells; in the pull-down and co-immunoprecipitation it stood in cell lysates; also called myc-WSX-1; IL-27 receptor; not shown: C-terminal myc-His tag of the pEF-mycHis vector
T4 sequence (looked up): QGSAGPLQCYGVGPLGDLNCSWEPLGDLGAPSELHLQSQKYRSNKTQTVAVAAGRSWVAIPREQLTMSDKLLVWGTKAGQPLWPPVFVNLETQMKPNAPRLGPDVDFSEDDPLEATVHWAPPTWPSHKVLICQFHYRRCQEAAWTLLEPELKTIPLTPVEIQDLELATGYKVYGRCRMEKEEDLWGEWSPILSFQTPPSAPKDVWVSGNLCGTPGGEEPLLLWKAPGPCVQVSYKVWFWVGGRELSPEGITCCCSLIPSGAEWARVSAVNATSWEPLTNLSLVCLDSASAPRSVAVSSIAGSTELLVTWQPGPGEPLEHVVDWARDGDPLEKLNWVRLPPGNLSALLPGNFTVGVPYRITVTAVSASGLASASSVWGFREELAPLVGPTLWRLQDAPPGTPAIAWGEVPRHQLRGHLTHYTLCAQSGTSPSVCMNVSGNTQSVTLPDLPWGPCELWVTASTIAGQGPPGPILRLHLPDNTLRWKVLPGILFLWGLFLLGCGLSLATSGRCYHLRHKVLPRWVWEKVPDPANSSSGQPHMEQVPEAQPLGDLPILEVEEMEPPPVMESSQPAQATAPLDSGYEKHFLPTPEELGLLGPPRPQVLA
Experimental: as §2, §3

[6] = target: T5, C-terminally V5-tagged human CNTF-R (V5-CNTF-R) (human, UniProt P26992 23-342); experiment: as above
T5 construct: whole, on cells; in the pull-down and co-immunoprecipitation it stood in cell lysates; also called human CNTF receptor; CNTF receptor alpha chain; not shown: C-terminal V5 tag
T5 sequence (looked up): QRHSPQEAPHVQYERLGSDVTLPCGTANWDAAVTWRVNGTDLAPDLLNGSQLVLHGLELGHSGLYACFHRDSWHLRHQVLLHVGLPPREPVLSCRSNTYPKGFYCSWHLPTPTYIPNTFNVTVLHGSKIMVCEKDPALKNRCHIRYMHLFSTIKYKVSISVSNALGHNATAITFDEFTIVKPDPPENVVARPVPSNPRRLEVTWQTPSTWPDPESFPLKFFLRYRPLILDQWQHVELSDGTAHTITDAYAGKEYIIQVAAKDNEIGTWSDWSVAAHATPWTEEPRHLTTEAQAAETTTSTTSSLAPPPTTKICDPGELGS
Experimental: as §2, §3

T3 sequence (P40189 23-918, one chain of several): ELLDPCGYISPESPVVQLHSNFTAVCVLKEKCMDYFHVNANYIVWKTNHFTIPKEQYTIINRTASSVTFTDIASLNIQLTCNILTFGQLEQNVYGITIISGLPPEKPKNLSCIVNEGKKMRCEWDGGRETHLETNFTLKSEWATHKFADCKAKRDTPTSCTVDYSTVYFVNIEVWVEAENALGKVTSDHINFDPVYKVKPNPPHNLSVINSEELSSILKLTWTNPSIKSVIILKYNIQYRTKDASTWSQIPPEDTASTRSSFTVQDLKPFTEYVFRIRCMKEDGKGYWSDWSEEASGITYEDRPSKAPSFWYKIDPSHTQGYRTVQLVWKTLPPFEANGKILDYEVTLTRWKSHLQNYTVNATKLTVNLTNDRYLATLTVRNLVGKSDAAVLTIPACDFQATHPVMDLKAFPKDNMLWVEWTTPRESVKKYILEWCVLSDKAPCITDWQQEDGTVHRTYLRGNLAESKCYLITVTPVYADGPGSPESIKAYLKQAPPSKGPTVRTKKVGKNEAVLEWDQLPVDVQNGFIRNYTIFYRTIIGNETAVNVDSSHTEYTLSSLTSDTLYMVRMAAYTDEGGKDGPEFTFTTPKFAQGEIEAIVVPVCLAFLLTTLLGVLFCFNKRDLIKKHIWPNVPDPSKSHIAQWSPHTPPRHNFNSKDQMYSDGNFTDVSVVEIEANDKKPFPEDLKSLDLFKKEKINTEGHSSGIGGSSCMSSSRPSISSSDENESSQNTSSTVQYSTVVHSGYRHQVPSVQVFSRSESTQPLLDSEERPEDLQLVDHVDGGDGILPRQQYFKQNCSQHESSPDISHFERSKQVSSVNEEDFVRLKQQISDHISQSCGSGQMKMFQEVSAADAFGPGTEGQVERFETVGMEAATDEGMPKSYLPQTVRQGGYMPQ

binding result [1]: no binding (tested: 100 nM)
B1: biotin-labeled HNG-FLAG (peptide)
peptide: MAPRGFSCLLLLTGEIDLPVKRRA
modifications: also: biotin label, position not given here, FLAG tag, sequence and position not given here
notes: the identity is therefore uncertain; not shown: FLAG tag

binding result [2]: no binding | binding result [3]: binds
B2: Humanin (HN) (peptide)
peptide: MAPRGFSCLLLLTSEIDLPVKRRA
notes: Synthetic 24-residue peptide; elsewhere it was used free and unlabeled; also called synthetic Humanin

binding result [4]: no binding | binding result [5]: no binding | binding result [6]: no binding
B3: C8A-Humanin (HNA) (peptide)
peptide: MAPRGFSALLLLTSEIDLPVKRRA
notes: Synthetic peptide, HN mutant with null activity used as negative control; also called C8A-HN
